# PMC11960969, “Mdga2 deficiency leads to an aberrant activation of BDNF/TrkB signaling that underlies autism-relevant synaptic and behavioral changes in mice” (PLOS Biology, 2025)
# B1: MDGA2: MAM domain containing glycosylphosphatidylinositol anchor 2; full-length human, recombinant or transfected (protein, UniProt Q7Z553 1-956, looked up)
# chain: MDLLYGLVWLLTVLLEGISGQGVYAPPTVRIVHSGLACNIEEERYSERVYTIREGETLELTCLVTGHPRPQIRWTKTAGSASDRFQDSSVFNETLRITNIQRHQGGRYYCKAENGLGSPAIKSIRVDVYYLDDPVVTVHQSIGEAKEQFYYERTVFLRCVANSNPPVRYSWRRGQEVLLQGSDKGVEIYEPFFTQGETKILKLKNLRPQDYANYSCIASVRNVCNIPDKMVSFRLSNKTASPSIKLLVDDPIVVNPGEAITLVCVTTGGEPAPSLTWVRSFGTLPEKTVLNGGTLTIPAITSDDAGTYSCIANNNVGNPAKKSTNIIVRALKKGRFWITPDPYHKDDNIQIGREVKISCQVEAVPSEELTFSWFKNGRPLRSSERMVITQTDPDVSPGTTNLDIIDLKFTDFGTYTCVASLKGGGISDISIDVNISSSTVPPNLTVPQEKSPLVTREGDTIELQCQVTGKPKPIILWSRADKEVAMPDGSMQMESYDGTLRIVNVSREMSGMYRCQTSQYNGFNVKPREALVQLIVQYPPAVEPAFLEIRQGQDRSVTMSCRVLRAYPIRVLTYEWRLGNKLLRTGQFDSQEYTEYAVKSLSNENYGVYNCSIINEAGAGRCSFLVTGKAYAPEFYYDTYNPVWQNRHRVYSYSLQWTQMNPDAVDRIVAYRLGIRQAGQQRWWEQEIKINGNIQKGELITYNLTELIKPEAYEVRLTPLTKFGEGDSTIRVIKYSAPVNPHLREFHCGFEDGNICLFTQDDTDNFDWTKQSTATRNTKYTPNTGPNADRSGSKEGFYMYIETSRPRLEGEKARLLSPVFSIAPKNPYGPTNTAYCFSFFYHMYGQHIGVLNVYLRLKGQTTIENPLWSSSGNKGQRWNEAHVNIYPITSFQLIFEGIRGPGIEGDIAIDDVSIAEGECAKQDLATKNSVDGAVGILVHIWLFPIIVLISILSPRR
# modifications: full-length GFP tag in some constructs
# notes: MAM domain containing glycosylphosphatidylinositol anchor 2; full-length human, recombinant or transfected
# B2: brain-derived neurotrophic factor (protein)
# chain: APMKEVNVHGQGNLAYPGVRTHGTLESVNGPRAGSRGLTTTSLADTFEHVIEELLDEDQKVRPNEENHKDADLYTSRVMLSSQVPLEPPLLFLLEEYKNYLDAANMSMRVRRHSDPARRGELSVCDSISEWVTAADKKTAVDMSGGTVTVLEKVPVSKGQLKQYFYETKCNPMGYTKEGCRGIDKRHWNSQCRTTQSYVRALTMDSKKRIGWRFIRIDTSCVCTLTIKRGR
# Assays:
# recombinant TrkB protein = biological target: T1, recombinant TrkB protein (Homo sapiens, UniProt Q16620); assay: Surface plasmon resonance (Biacore CM5, immobilized TrkB); type: binding; conditions: SPR, TrkB immobilized on Biacore CM5 chip, analyte at several concentrations, Biacore T100 Evaluation software
# T1 construct: Full-length human TrkB or MDGA2 cDNA was cloned into the pcDNA6-His vector; His; made in house; host or cells: HEK293T cells
# T1 sequence (Q16620 32-822): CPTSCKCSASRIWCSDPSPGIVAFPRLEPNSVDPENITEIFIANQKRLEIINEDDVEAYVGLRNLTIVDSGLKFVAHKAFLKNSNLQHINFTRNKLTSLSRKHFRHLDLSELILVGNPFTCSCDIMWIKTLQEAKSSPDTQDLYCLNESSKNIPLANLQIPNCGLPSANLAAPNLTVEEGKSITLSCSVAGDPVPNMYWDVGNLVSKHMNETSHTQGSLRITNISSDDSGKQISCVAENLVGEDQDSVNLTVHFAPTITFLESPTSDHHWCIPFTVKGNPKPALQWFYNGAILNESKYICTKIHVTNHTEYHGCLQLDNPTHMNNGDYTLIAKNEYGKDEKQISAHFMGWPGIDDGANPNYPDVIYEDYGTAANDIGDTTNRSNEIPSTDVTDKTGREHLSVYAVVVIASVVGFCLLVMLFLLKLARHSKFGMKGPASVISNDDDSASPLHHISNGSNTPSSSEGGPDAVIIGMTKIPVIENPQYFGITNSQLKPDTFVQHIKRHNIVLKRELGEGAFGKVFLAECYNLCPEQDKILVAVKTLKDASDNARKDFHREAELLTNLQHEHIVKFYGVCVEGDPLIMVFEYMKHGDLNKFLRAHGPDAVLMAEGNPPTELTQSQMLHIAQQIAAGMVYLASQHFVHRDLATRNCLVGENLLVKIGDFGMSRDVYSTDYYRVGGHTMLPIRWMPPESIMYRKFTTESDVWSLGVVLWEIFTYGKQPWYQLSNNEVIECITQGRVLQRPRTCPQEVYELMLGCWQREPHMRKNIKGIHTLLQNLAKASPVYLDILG
# Procedure: (§1) Fig 3 MDGA2 interacts with TrkB and suppresses TrkB activity. (A) Primary hippocampal neurons derived from Mdga2^ +/− (Het) mice and their wild-type (WT) littermates at DIV 7 were treated with different doses of BDNF for 30 min. Equal amounts of protein lysates were subjected to immunoprecipitation (IP) with an anti-TrkB antibody, followed by immunoblotting with an anti-phosphotyrosine (pTyr) antibody or the anti-TrkB antibody. The pTyr levels were quantified by densitometry, normalized to total TrkB levels, and then compared to those of WT controls. n = 3 per group. (B) WT mouse brain lysates were subjected to IP with an anti-MDGA2 antibody and a control IgG, and immunoblotted (IB) for the components indicated. mBDNF, mature BDNF; ImBDNF, immature BDNF. […] Immunoprecipitated TrkB levels were quantified by densitometry, normalized to input levels, and compared to respective controls (set to one arbitrary units). n = 3 per group. […] Levels of phosphorylated proteins were quantified by densitometry, normalized to respective total protein levels and compared to controls (set to one arbitrary units). n = 6 per group. […] P-values were determined by two-tailed unpaired Student t-test in (A) and one-way ANOVA with Tukey’s multiple comparisons test in (H, I, J). *p < 0.05, **p < 0.01, ***p < 0.001, ns: not significant. […]
# TrkB [1] = assay: Co-IP of endogenous MDGA2 and TrkB from WT mouse brain lysates; type: binding
# BDNF-TrkB interaction = assay: BDNF-TrkB Co-IP (anti-BDNF or anti-TrkB) in primary neurons / brain of Het, KO, WT and in WT neurons transfected with MDGA2 or ΔMAM; type: cell-based, mouse; conditions: IP anti-BDNF, Fig 3I
# Procedure: as §1
# [2] = system: TrkB signaling (pTrkB, pAkt, pmTOR); assay: Immunoblotting of TrkB/Akt/mTOR phosphorylation in primary neurons transfected with MDGA2, ΔMAM or V930I; type: cell-based, mouse; conditions: for pAkt level normalized to total protein / pTrkB level normalized to total protein / pmTOR level normalized to total protein: KO neurons transfected, WT/Ctrl set to one
# Procedure: Fig 3 MDGA2 interacts with TrkB and suppresses TrkB activity. (A) Primary hippocampal neurons derived from Mdga2^ +/− (Het) mice and their wild-type (WT) littermates at DIV 7 were treated with different doses of BDNF for 30 min. Equal amounts of protein lysates were subjected to immunoprecipitation (IP) with an anti-TrkB antibody, followed by immunoblotting with an anti-phosphotyrosine (pTyr) antibody or the anti-TrkB antibody. The pTyr levels were quantified by densitometry, normalized to total TrkB levels, and then compared to those of WT controls. n = 3 per group. (B) WT mouse brain lysates were subjected to IP with an anti-MDGA2 antibody and a control IgG, and immunoblotted (IB) for the components indicated. mBDNF, mature BDNF; ImBDNF, immature BDNF. (C) Hippocampal neurons from WT mice at DIV 7 were immunostained with antibodies against MDGA2 (red) and TrkB (green), and then counter-stained with DAPI (blue). Images were acquired by a confocal microscope. Scale bar: 10 μm. (D) Surface plasmon resonance (SPR) analysis of the binding between recombinant MDGA2 protein and recombinant TrkB protein. TrkB was immobilized on a Biacore CM5 chip and tested for its binding with MDGA2 at the concentrations indicated. (E) Computer simulation of the binding mode of TrkB and MDGA2. The predicted binding domain of TrkB (the d5 domain) is highlighted by a red square and labeled in brown. The predicted binding domain of MDGA2 (the MAM domain) is highlighted by a red square and labeled in yellow. (F) HEK293T cells were co-transfected with TrkB-Flag and GFP-tagged full-length MDGA2 (MDGA2-GFP) or an MDGA2 deletion fragment lacking the entire MAM domain (ΔMAM-GFP). Cell lysates were subjected to IP with control IgG and antibodies against Flag or GFP, and immunoblotted for the components indicated. […] The scheme of MDGA2-ΔMAM is also shown. (G) HeLa cells were co-transfected with TrkB that is tagged with the N-terminal Venus fragment (TrkB-VN) and full-length MDGA2 or MDGA2-ΔMAM that are tagged with the C-terminal Venus fragment (MDGA2-VC or ΔMAM-VC) for 24 h. After immunostaining with antibodies against MDGA2/MDGA2-ΔMAM (pink) and TrkB (red), cells were observed by confocal microscopy. Venus signal (green) indicates the interaction between MDGA2 and TrkB. Schematic diagrams depicting the BiFC assay are also shown. Scale bars: 10 μm. (H, I) Equal amounts of protein lysates from primary neurons derived from Het, KO, and their WT littermate mice (H), and from WT primary neurons transfected with GFP control, MDGA2-GFP or ΔMAM-GFP (I) were subjected to IP with IgG and an anti-BDNF antibody, and then immunoblotted for the components indicated. Immunoprecipitated TrkB levels were quantified by densitometry, normalized to input levels, and compared to respective controls (set to one arbitrary units). n = 3 per group. (J) Neurons derived from KO mice were transfected with GFP control (Ctrl), MDGA2-GFP, or MDGA2-ΔMAM-GFP, and neurons derived from their WT littermates were transfected with GFP control (Ctrl). Equal amounts of protein lysates were subjected to immunoblotting for the proteins indicated. Levels of phosphorylated proteins were quantified by densitometry, normalized to respective total protein levels and compared to controls (set to one arbitrary units). n = 6 per group. Data represent mean ± SEM. P-values were determined by two-tailed unpaired Student t-test in (A) and one-way ANOVA with Tukey’s multiple comparisons test in (H, I, J). *p < 0.05, **p < 0.01, ***p < 0.001, ns: not significant. The data underlying this figure can be found in S1 Data, specifically in the sheet labeled “Figure 3”.
# Fig 7 The autism spectrum disorder (ASD)-associated MDGA2 V930I mutation impairs the MDGA2-TrkB interaction and MDGA2’s inhibitory effect on the tyrosine kinase B (TrkB) signaling. (A) Schematic depiction of the WT human MDGA2 and its V930I mutation constructs that are tagged with GFP. […]
# TrkB (TrkB-VN) = assay: BiFC assay in HeLa cells (TrkB-VN with MDGA2-VC or ΔMAM-VC); type: cell-based, human; conditions: 24 h, Venus fluorescence
# Procedure: as §1
# TrkB [3] = assay: BDNF-induced TrkB tyrosine phosphorylation in primary hippocampal neurons (IP anti-TrkB, immunoblot pTyr); type: cell-based, mouse; conditions: primary hippocampal neurons DIV 7, 30 min; Mdga2+/- and Mdga2-/- vs WT neurons; Fig 3A, S3A
# Procedure: as §1
# ASD animal models = conditions: cited from earlier work
molecule,measurement,setting,value
B1,Kd,recombinant TrkB protein,24.4 nM
same,interaction of endogenous MDGA2 (Co-IP),"TrkB [1]; IP anti-MDGA2, Fig 3B",immunoprecipitated TrkB and NLGN1 but not mBDNF or ImBDNF
same,interaction of endogenous MDGA2 (Co-IP),"TrkB [1]; IP anti-TrkB, S3C Fig",specifically immunoprecipitated MDGA2 but not MDGA1
same,interaction between BDNF and TrkB upon overexpression,BDNF-TrkB interaction,attenuated the interaction between BDNF and TrkB
same,pAkt level normalized to total protein,[2]; replicate 1,1.48 arbitrary units
same,pTrkB level normalized to total protein,[2]; replicate 1,1.52 arbitrary units
same,pmTOR level normalized to total protein,[2]; replicate 1,0.88 arbitrary units
same,pAkt level normalized to total protein,[2]; replicate 2,1.42 arbitrary units
same,pTrkB level normalized to total protein,[2]; replicate 2,1.19 arbitrary units
same,pmTOR level normalized to total protein,[2]; replicate 2,1.02 arbitrary units
same,pAkt level normalized to total protein,[2]; replicate 3,1.72 arbitrary units
same,pTrkB level normalized to total protein,[2]; replicate 3,1.31 arbitrary units
same,pmTOR level normalized to total protein,[2]; replicate 3,1.26 arbitrary units
same,pAkt level normalized to total protein,[2]; replicate 4,1.9 arbitrary units
same,pTrkB level normalized to total protein,[2]; replicate 4,1.16 arbitrary units
same,pmTOR level normalized to total protein,[2]; replicate 4,1.35 arbitrary units
same,pAkt level normalized to total protein,[2]; replicate 5,1.87 arbitrary units
same,pTrkB level normalized to total protein,[2]; replicate 5,1.08 arbitrary units
same,pmTOR level normalized to total protein,[2]; replicate 5,1.92 arbitrary units
same,pAkt level normalized to total protein,[2]; replicate 6,1.07 arbitrary units
same,pTrkB level normalized to total protein,[2]; replicate 6,1.03 arbitrary units
same,pmTOR level normalized to total protein,[2]; replicate 6,1.41 arbitrary units
same,"overactivation of TrkB signaling (pTrkB, pAkt, pmTOR) upon expression","[2]; Mdga2-/- neurons, Fig 3J, n = 6",could be reversed upon the expression of full-length MDGA2
same,interaction with TrkB (BiFC),TrkB (TrkB-VN),could interact with full-length MDGA2
B2,Phosphorylation of TrkB induced by BDNF,TrkB [3],showed a dose-dependent manner and was much stronger in Mdga2^ +/− and Mdga2^−/− neurons than in WT neurons
same,repetitive self-grooming behavior and anxiety-like behavior,"ASD animal models; overexpression of BDNF, neonatally isolated rats",rescued repetitive self-grooming behavior and anxiety-like behavior
same,social deficits,ASD animal models; valproic acid-exposed mice,attenuated social deficits in valproic acid-exposed mice
